# T1: ASK1 (Homo sapiens, UniProt Q99683)
# T1 construct: Myc; expressed in transfected cells; host or cells: HEK293
# T1 sequence (Q99683 1-1374): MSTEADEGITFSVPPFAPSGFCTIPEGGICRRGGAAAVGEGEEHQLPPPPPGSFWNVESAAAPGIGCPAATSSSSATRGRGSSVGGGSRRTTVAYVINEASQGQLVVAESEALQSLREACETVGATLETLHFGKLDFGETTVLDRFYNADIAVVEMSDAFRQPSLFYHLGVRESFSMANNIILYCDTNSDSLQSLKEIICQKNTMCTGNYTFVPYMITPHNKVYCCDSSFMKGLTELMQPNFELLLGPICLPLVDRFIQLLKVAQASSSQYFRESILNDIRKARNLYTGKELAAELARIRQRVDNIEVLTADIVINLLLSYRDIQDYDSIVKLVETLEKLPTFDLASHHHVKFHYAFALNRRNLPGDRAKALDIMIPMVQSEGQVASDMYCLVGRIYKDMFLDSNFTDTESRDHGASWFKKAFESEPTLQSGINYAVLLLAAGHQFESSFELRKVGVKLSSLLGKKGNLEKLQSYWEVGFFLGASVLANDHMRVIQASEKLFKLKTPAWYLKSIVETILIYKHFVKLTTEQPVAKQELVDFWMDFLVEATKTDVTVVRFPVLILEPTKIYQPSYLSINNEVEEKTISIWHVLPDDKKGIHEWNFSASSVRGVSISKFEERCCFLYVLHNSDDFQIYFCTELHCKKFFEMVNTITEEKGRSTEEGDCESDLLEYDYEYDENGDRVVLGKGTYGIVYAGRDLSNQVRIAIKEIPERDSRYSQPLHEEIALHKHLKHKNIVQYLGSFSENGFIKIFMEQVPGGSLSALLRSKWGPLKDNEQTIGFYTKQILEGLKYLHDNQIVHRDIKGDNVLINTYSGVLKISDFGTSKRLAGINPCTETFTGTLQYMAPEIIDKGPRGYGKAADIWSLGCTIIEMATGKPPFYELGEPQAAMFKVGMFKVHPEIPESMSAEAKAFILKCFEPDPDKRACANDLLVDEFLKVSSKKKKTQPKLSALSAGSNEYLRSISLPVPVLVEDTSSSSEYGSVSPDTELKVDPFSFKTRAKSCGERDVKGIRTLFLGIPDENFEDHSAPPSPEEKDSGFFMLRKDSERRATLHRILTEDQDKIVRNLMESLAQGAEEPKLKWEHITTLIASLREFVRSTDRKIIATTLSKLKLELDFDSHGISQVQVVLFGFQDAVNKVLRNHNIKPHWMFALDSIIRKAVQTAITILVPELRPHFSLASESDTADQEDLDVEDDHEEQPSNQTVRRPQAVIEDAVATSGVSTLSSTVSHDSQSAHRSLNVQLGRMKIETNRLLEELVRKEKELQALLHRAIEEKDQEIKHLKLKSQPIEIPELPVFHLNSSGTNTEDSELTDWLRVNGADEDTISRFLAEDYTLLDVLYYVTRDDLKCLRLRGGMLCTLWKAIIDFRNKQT
# B1: CFP-ABP1: fusion protein of ABP1 with CFP at the N-terminal (protein)
# chain: MRPLDIVELAEPEEVEVLEPEEDFEQFLLPVINEMREDIASLTREHGRAYLRNRSKLWEMDNMLIQIKTQVEASEESALNHLQNPGDAAEGRAAKRCEKAEEKAKEIAKMAEMLVELVRRIEKSESS
# modifications: left off: large carriers
# notes: fusion protein of ABP1 with CFP at the N-terminal
# B2: ABP1: ASK1-binding protein of 127 amino acids encoded by gene PGR1 (SEQ ID NO:2); Myc-tagged in PAE-ABP1 cells (protein, listed as Homo sapiens)
# chain: B1 chain
# modifications: Myc tag
# notes: Myc-tagged in PAE-ABP1 cells
# Legend:
# ASK1 [1] = target: T1, ASK1; experiment: Co-immunoprecipitation of ABP1 and ASK1 co-expressed in HEK293 cells; format: binding
# Method: FIGS. 4A-B show the results of binding experiments of ABP1 and ASK1. FIG. 4A: HEK293 cells were transfected with Flag-ABP1 and the Myc-ASK1 plasmid, the cells were recovered after 24 hours, immunoprecipitation with an anti-Flag antibody was conducted, and immunoblot analysis was conducted using an anti-Myc antibody. FIG. 4B: HEK293 cells were transfected with Flag-ASK1 and the CFP-ABP1 plasmid, the cells were recovered after 24 hours, immunoprecipitation with an anti-Flag antibody was conducted, and immunoblot analysis was conducted using an anti-GFP antibody. Note that CFP is a variant of GFP and can be recognized by an anti-GFP antibody. For both FIGS. 4A and B, the two right lanes show the results obtained with H2O2 treatment (0.5 mM, 1 hour). […] IP stands for immunoprecipitation, and IB stands for immunoblot.
# Two fusion proteins, i.e., Flag-ABP1 and Myc-ASK1, were co-expressed in HEK293 cells. […] The antibodies used were anti-Flag antibody (described above) and anti-Myc antibody (Clone 9E10, Calbiochem). This binding was enhanced by treatment with H2O2, which is ASK1 activation factor. […] The antibodies used were anti-Flag antibody (described above) and anti-GFP antibody (Medical & Biological Laboratories CO.).
# HeLa cells = experiment: Cell death assay in HeLa cells transiently expressing CFP fusion proteins; format: cell-based
# Method: FIGS. 6A-B show the induction of cell death by ABP1 in HeLa cells. FIG. 6A: Fluorescence photomicrographs at 36 hours after HeLa cells were transfected with CFP or the CFP-ABP1 plasmid (upper panel) and differential interference photomicrographs for the same fields (lower panel) are shown. FIG. 6B: The ratio (%) of cell death at 36 hours after transfection is shown.
# FIGS. 10A-B show the induction of cell death by an ABP1-deficient variant. FIG. 10A: A schematic diagram of the ABP1-deficient variant is shown. […] FIG. 10B: The ratio (%) of cell death at 36 hours after transfection in cells introduced with the ABP1-deficient variant is shown.
# • (1) To examine the intracellular localization and function of ABP1, HeLa cells were transfected with the CFP-ABP1 plasmid [prepared by subcloning ABP1 cDNA prepared by PCR into pECFP-C1 (Clontech)], which was also used in the immunoprecipitation experiment, and which expresses a fusion protein of ABP1 with CFP at the N-terminal-[transfection conducted using FuGENE6 (Roche Diagnostics K.K) as directed in the instruction manual thereof] to allow the transient expression of the protein, and CFP fluorescence was examined over time using a fluorescence microscope. […] This calculation was made for CFP-positive cells.
# As described above, ABP1 has none of the functional domains of existing apoptosis-related factors. […]
# caspase-3 = experiment: Caspase-3 activity (DEVD-AFC fluorometric assay) in PAE-ABP1 cells; format: cell-based, porcine; conditions: absence of tetracycline, around the time of cell death
# Method: (§1) FIGS. 9A-B show the caspase dependency of cell death by ABP1. FIG. 9A: PAE-ABP1 cells were cultivated in the absence of tetracycline, and caspase-3 activity was measured after 0, 12, 24, and 36 hours. The results are shown as relative values with the value in the presence of tetracycline taken as 1. FIG. 9B: PAE-ABP1 cells were treated with zVAD-fmk (50 μM) simultaneously with removal of tetracycline, and the ratio (%) of dead cells was quantified. Cell death assay was conducted at 18 hours after removal of tetracycline. Tet stands for tetracycline.
# The same was also confirmed in TUNEL staining of PAE-ABP1 cells. • (4) DNA fragmentation during apoptosis normally occurs subsequent to caspase activation. […] The measurement was conducted using a CPP32/caspase-3 fluorometric protease assay kit (MBL) with the synthetic fluorescence peptide DEVD-7-amino-4-trifluoromethyl coumarin (AFC) as a substrate. The fluorescence intensity from the liberated AFC was measured at an excitation wavelength of 360 nm and a fluorescence wavelength of 530 nm using a fluorescence spectrophotometer. Each sample was assayed twice. The results are shown as relative values with the value in the presence of tetracycline taken as 1.
# JNK = experiment: Immunoblot with anti-phosphorylated JNK antibody in PAE-ABP1 cells; format: cell-based, porcine; conditions: 12 hours after tetracycline removal
# Description: (§2) FIGS. 11A-B show the activation of ASK1, JNK, and p38 by ABP1. FIG. 11A: PAE-ABP1 cells were cultivated in the absence of tetracycline, the activation of endogenous JNK and p38 was examined by immunoblot analysis using each anti-phosphorylated protein antibody. FIG. 11B: PAE-ABP1 cells were cultivated in the absence of tetracycline, the activation of endogenous ASK1 was examined by immunoblot analysis using an anti-phosphorylated protein antibody. IB stands for immunoblot.
# (§3) The activation of JNK and p38 during induction of the expression of ABP1 was investigated using respective anti-phosphorylated protein antibodies using PAE-ABP1 cells. The antibodies used were an anti-phosphorylated JNK antibody (Cell Signaling), an anti-phosphorylated p38 antibody (Cell Signaling), and an anti-phosphorylated ASK1 antibody (Tobiume et al., EMBO Rep., 2, 222-228, 2001). The cells were lysed using a lysis buffer (described above) in the same manner as Example 4, the lysate was centrifuged, the supernatant was recovered and reacted with an anti-Myc antibody (Clone 9E10, Calbiochem), Protein A-sepharose 4B (Zymed Laboratories) was added, incubation was conducted for 30 minutes, the reaction mixture was washed with the lysis buffer three times, an SDS sample buffer (described above) was added, and the same procedure as the immunoblotting method was followed.
# PAE-ABP1 cells [2] = experiment: Cell death assay in PAE-ABP1 cells after removal of tetracycline; format: cell-based, porcine; conditions: 48 hours after removal of tetracycline (Myc-ABP1 expressed)
# Method: FIGS. 7A-B show the induction of cell death by ABP1 in PAE-ABP1 cells. FIG. 7A: Phase contrast photomicrographs at 36 hours after cultivation of PAE-ABP1 cells in the presence (+) and absence (−) of tetracycline (Tet) are shown. FIG. 7B: The ratio (%) of cell death from cultivation in the presence of tetracycline (O hour) and at 24 hours and 48 hours after removal of tetracycline.
# as §1, with “Tet stands for tetracycline.” left out
# When these cells were cultured in the absence of tetracycline, cell death was induced with the expression of the ABP1 protein, as in the transient expression of the ABP1 protein in HeLa cells (FIG. 7A). The ratio of dead cells to all cells (the ratio of cells showing a morphological sign of cell death to all cells was determined under a microscope; the results were shown as the mean for three visual fields) was determined to be about 55% at 48 hours after removal of tetracycline (FIG. 7B).
# ASK1 [3] = experiment: Immunoblot with anti-phosphorylated ASK1 antibody in PAE-ABP1 cells; format: cell-based, porcine; conditions: 12 hours after tetracycline removal
# Description: as §2, §3
# p38 = experiment: Immunoblot with anti-phosphorylated p38 antibody in PAE-ABP1 cells; format: cell-based, porcine; conditions: 12 hours after tetracycline removal
# Description: as §2, §3
# PAE-ABP1 cells [4] = experiment: DNA fragmentation (agarose gel electrophoresis) in PAE-ABP1 cells; format: cell-based, porcine; conditions: after removal of tetracycline
# Method: PAE-ABP1 cells were examined for DNA fragmentation at each time after removal of tetracycline by agarose gel electrophoresis (upper panel). At both ends are molecular weight markers (M), with their sizes shown at the right end.
# PAE-ABPl cells (2×10^6 cells) were lysed in 200 μl of lysis buffer [20 mM Tris-HCl (pH 7.5), 10 mM EDTA, 0.5% Triton X-100]. the lysate was centrifuged, and the supematant was recovered and treated with 0.2 mg/mi proteinase K at 420° C for 1 hour. Subsequently, DNA was purified by the phenol-chloroform extraction method and the ethanol precipitation method, this was lysed again in a TE buffer containing 0.2 mg/ml ribonuclease A (10mM Tris-HCl, 1mM EDTA), the lysate was electrophoresed on 2% agarose gel, stained with ethidium bromide, and the migration pattern was photographed.
Molecule,"effect of H2O2 treatment on binding of ABP1 and ASK1 (ASK1 [1]; H2O2 treatment (0.5 mM, 1 hour))","binding of ABP1 and ASK1 (co-immunoprecipitation) (ASK1 [1]; immunoprecipitation with anti-Flag antibody, immunoblot)",ratio of cell death among cells expressing the fusion protein (HeLa cells; 36 hours after transfection),"time after transfection at which signs of cell death began (HeLa cells; detachment from the culture plate, membrane blebbing)",caspase-3 activity (caspase-3),activation of endogenous JNK (JNK),ratio of dead cells to all cells (PAE-ABP1 cells [2]),activation of endogenous ASK1 (ASK1 [3]),activation of endogenous p38 (p38),DNA fragmentation (PAE-ABP1 cells [4])
B1,also enhanced,binding of the two proteins was confirmed,about 70%,around 24 hours,–,–,–,–,–,–
B2,–,–,–,–,decreased,observed,about 55%,activation of ASK1 was observed,observed,formed a DNA ladder
